According to patent publication US20110206615A1:

Target: mKO2-Nrf2 fusion molecule (mKO2 fused to amino acids 1-100 of human Nrf2, released from the probe reagent mKO2-Nrf2-100-T2A-Keap1 by self-cleavage at T2A) (human) (UniProt Q16236)
Test: cell-based or functional assay

Chain of UniProt Q16236 (Q16236 other isoform, or with tags, fused parts or gaps): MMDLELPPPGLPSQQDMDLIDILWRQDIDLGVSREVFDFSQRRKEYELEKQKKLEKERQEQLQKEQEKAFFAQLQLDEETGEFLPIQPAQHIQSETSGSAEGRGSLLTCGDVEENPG

fluorescent intensity of mKO2 in HeLa cells after addition of DEM (oxidative stress inducer) at 100 µM: 10 times
Substance: human Keap1 (regulatory factor, released from mKO2-Nrf2-100-T2A-Keap1 by self-cleavage at T2A) (from UniProt Q14145 1-624)
